Assay results as given in CN107840891A.
Residue numbers refer to the chain shown, from its start.

B1: MN单链抗体 (scFv MN, wild type) (scFv, V domains shown)
VH: QVQLQQPGAELVKPGASMKLSCKASGYTFTSYWMHWVKQRPGQGLEWIGMIHPNSDNTIYYEKFKSKATLTVDKSSSTAYMQLSSLTSEDSAVYYCAIIITPVVPKFDYWGQGTTLTVSS
VL: DIVMTQSHQFMSTSVGDRVSVTCKASHDVGTSVAWYQQKPGQSPKLLIYWASTRHTGVPDRFTGSGSGTDFTLTISNVQSEDLADYFCQQYSSYPLTFGAGTKLELK
B2: 2G8 (scFv, V domains shown)
VH: B1 VH with Y27T, T28Q, T30A, S31N, W33R
VL: B1 VL
B3: 4D7 (scFv, V domains shown)
VH: B1 VH with I99T, T101S
VL: B1 VL
B4: 2D9 (scFv, V domains shown)
VH: B1 VH with P53A, N54Q
VL: B1 VL
B5: 7D5 (scFv, V domains shown)
VH: B1 VH
VL: B1 VL with W50K, T53N, R54N, H55K, T56K
B6: 4A12 (scFv, V domains shown)
VH: B1 VH with I99V, T101L, V103F, V104L
VL: B1 VL
B7: 4C11 (scFv, V domains shown)
VH: B1 VH with P53L, D56A, N57Q
VL: B1 VL
B8: 8C9 (scFv, V domains shown)
VH: B1 VH
VL: B1 VL with K24M
B9: 7E10 (scFv, V domains shown)
VH: B1 VH
VL: B1 VL with W50N, T53S, H55G, T56G
B10: 5F7 (scFv, V domains shown)
VH: B1 VH
VL: B1 VL with S92A, T97S
B11: 2F9 (scFv, V domains shown)
VH: B1 VH with M50G, H52E, P53Q, D56S, N57E
VL: B1 VL
B12: 3E12 (scFv, V domains shown)
VH: B1 VH with H52N, P53L, N54V, D56S, N57R
VL: B1 VL
B13: 3F9 (scFv, V domains shown)
VH: B1 VH with D56Q
VL: B1 VL
B14: 9F5 (scFv, V domains shown)
VH: B1 VH
VL: B1 VL with W50Q, T53K, R54K, H55E, T56K

biological target: MSLN抗原 (Mesothelin, MSLN-Biotin) (human) (UniProt Q13421); test: BLI (Octet RED96), MSLN-Biotin on AR2G sensor, TG1 periplasmic scFv as analyte (表2.1)
Chain of UniProt Q13421 (Q13421 296-606 limits assumed): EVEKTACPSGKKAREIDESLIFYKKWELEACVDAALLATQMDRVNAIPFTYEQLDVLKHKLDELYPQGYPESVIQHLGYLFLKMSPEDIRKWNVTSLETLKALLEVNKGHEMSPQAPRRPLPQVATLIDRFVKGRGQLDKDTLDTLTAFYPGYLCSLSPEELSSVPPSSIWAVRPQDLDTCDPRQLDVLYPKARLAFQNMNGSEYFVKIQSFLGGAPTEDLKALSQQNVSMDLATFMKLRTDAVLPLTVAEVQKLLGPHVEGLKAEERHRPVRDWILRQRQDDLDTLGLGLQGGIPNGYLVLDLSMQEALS

Row | koff | 响应 | Binder
1 | 0.000164 s⁻¹ | 0.37 | B1

biological target: MSLN抗原 (Mesothelin, MSLN-Biotin) (human) (UniProt Q13421); test: BLI (Octet RED96), MSLN-Biotin on AR2G sensor, TG1 periplasmic scFv as analyte (表2.2)

Row | koff | 响应 | Binder
2 | 0.000221 s⁻¹ | 0.38 | B1

biological target: MSLN抗原 (Mesothelin, MSLN-Biotin) (human) (UniProt Q13421); test: BLI (Octet RED96), MSLN-Biotin on AR2G sensor, TG1 periplasmic scFv as analyte (表2.4)

Row | koff | 响应 | Binder
3 | 0.000188 s⁻¹ | 0.37 | B1

biological target: MSLN抗原 (Mesothelin, MSLN-Biotin) (human) (UniProt Q13421); test: BLI (Octet RED96), MSLN-Biotin on AR2G sensor, TG1 periplasmic scFv as analyte

Row | koff | 响应 | Binder
4 | 0.00111 s⁻¹ | 1.11 | B2
5 | 0.000321 s⁻¹ | 0.96 | B3
6 | 0.000217 s⁻¹ | 1.25 | B4
7 | 0.000395 s⁻¹ | 0.94 | B5
8 | 0.0001 s⁻¹ | 0.91 | B6
9 | 0.000133 s⁻¹ | 1.16 | B7
10 | 0.000356 s⁻¹ | 0.93 | B8
11 | 0.000401 s⁻¹ | 1.02 | B9
12 | 0.000613 s⁻¹ | 0.73 | B10
13 | 0.00166 s⁻¹ | 0.13 | B11
14 | 9.73e-05 s⁻¹ | 1.04 | B12
15 | 0.000164 s⁻¹ | 1.38 | B13
16 | 0.000294 s⁻¹ | 0.97 | B14
